Key:
[1] = target: mouse CD98HC (NP_001154885.1) (mouse) (UniProt P10852); experiment: flow cytometry, spleen B cells (mCD45+ mCD19+) of wild-type C57BL/6 mouse
[2] = target: humanized CD98HC protein (human/mouse chimeric (human amino acids 215-630 of SEQ ID NO: 2 in place of mouse amino acids 147-565 of SEQ ID NO: 1)) (UniProt P08195); experiment: flow cytometry, spleen B cells (mCD45+ mCD19+) of CD98HC humanized homozygous mouse (H/H)
[3] = target: mouse CD98HC (NP_001154885.1) (mouse) (UniProt P10852); experiment: flow cytometry, spleen T cells (mCD45+ mTCR β+) of wild-type C57BL/6 mouse
[4] = target: humanized CD98HC protein (human/mouse chimeric (human amino acids 215-630 of SEQ ID NO: 2 in place of mouse amino acids 147-565 of SEQ ID NO: 1)) (UniProt P08195); experiment: flow cytometry, spleen T cells (mCD45+ mTCR β+) of CD98HC humanized homozygous mouse (H/H)

Sequence of UniProt P08195 (P08195 other isoform, or with tags, fused parts or gaps mutant limits assumed): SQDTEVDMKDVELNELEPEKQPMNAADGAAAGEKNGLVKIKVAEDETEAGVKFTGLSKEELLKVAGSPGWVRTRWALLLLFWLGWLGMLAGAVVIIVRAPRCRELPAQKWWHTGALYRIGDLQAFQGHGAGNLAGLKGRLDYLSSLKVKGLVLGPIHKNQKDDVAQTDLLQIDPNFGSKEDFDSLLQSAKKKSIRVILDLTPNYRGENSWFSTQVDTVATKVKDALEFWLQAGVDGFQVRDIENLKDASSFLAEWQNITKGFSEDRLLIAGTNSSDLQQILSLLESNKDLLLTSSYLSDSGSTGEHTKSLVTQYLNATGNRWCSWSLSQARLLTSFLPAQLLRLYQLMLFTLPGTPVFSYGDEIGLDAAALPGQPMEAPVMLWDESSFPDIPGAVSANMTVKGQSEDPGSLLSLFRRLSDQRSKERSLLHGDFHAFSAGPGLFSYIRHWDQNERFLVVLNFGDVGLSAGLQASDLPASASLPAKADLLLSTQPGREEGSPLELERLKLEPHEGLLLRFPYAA
Sequence of UniProt P10852 (P10852 other isoform, or with tags, fused parts or gaps): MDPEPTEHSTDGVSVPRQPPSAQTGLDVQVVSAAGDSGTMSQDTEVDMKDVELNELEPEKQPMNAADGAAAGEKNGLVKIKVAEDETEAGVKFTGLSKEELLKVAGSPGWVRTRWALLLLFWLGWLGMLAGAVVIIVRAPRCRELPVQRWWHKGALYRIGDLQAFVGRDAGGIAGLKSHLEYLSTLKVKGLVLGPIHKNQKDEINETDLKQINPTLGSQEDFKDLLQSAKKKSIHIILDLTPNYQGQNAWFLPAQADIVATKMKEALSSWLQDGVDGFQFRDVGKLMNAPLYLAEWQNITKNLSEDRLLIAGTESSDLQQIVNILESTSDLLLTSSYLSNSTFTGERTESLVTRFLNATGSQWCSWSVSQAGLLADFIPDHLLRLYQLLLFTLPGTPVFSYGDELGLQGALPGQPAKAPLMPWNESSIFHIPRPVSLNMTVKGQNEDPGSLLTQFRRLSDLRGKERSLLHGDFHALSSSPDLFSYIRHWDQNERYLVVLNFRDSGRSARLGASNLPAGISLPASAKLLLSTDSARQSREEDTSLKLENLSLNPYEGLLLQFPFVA

Substance	percentage of positive cells [1] [%]	percentage of positive cells [2] [%]	percentage of positive cells [3] [%]	percentage of positive cells [4] [%]
APC anti-mouse CD98 (4F2) Antibody (Biolegend, Catalog number: 128211)	17.2	0.3	14.7	0.27
FITC anti-human CD98 Antibody (Biolegend, Catalog number: 315603)	0.82	27.1	0.45	27.6
